Biological target: TAG-72 positive bovine submaxillary mucin (BSM) (bovine)
Assay: relative affinity constant from competition RIA on BSM

humanized monoclonal antibody CC49 (HuCC49)
Ka: 3.2e+08 M⁻¹
